Results: patent US20200291354A1 (Novartis, published 2020)

Molecular target: T1, PD1 (Programmed Death 1) (human, UniProt Q15116 25-288)
T1 construct: whole, on cells
Assay: flow cytometry on T cells electroporated with PD1 and minibody mRNA; biotinylated goat anti-human IgG1 and streptavidin-PE
Text: FIG. 8 is a panel of images and graphs showing detection of PD1 minibody or PD1-PDL1 bispecific minibody bound on T cells. T cells were electroporated with mRNA (PD1, PD1 and PD1 minibody, and PD1 and PD1-PDL1 bispecific minibody) as specified. The T cells were stained with biotinylated goat anti-human IgG1 and then streptavidin-PE. Biotin anti-human IgG1 specifically detected PD1 minibody or PD1-PDL1 bispecific minibody […] when the cells expressed PD1. PD1 expressed on the T cell acted as an anchor for the secreted antibodies to bind that would otherwise not interact with the T cell.
Flow Cytometry Analysis. Tumor cells were cultured in the absence or presence of IFN-γ (R&D systems, Minneapolis, Minn.) at 20 ng/m1 for 24 hrs before the cells were harvested for staining with PDL1-PE (BioLegend). Live cells were gated on the live cell population by forward scatter/side scatter (FSC/SSC) and then PDL-1 positivity by PE expression. K562 cells and K562 PDL1/CD19 cells were stained with PDL1-PE (BioLegend, San Diego, Calif.) and CD19-PacBlue (Life Technologies, Carlsbad, Calif.). […]
FIG. 8 is a panel of images and graphs showing detection of PD1 minibody or PD1-PDL1 bispecific minibody on T cells. […] Biotin anti-human IgG1 specifically detected PD1 minibody or PD1-PDL1 bispecific minibody when the cells expressed PD1. […]

T1 sequence (Q15116 25-288): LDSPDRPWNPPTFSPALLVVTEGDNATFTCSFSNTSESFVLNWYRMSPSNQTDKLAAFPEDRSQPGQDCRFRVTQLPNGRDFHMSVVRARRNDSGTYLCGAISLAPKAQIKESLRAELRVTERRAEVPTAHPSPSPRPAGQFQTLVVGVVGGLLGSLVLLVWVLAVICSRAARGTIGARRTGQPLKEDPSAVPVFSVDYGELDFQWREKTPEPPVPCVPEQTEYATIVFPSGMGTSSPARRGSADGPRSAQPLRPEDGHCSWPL

B1: PD1 minibody (other)
chain: QVQLQESGPGVVKPSGTLSLTCAISGGSIGSGGSIRSTRWWSWVRQSPGKGLEWIGEIYHSGSTNYNPSLKSRVTISLDKSRNHFSLRLNSVTAADTAVYYCARQDYGDSGDWYFDLWGKGTMVTVSSGGGSGGGSGGGSGGGSNFMLTQPHSVSESPGKTVTISCTRSSGSIASNSVQWYQQRPGSSPTTVIYEDNQRPSGVPDRFSGSIDSSSNSASLTVSGLKTEDEADYYCQSSDSSAVVFGSGTKLTVLEPKSCDKTHTCPPCGGGSSGGGSGGQPREPQVYTLPPSRDELTKNQVSLTCLVKGFYPSDIAVEWESNGQPENNYKTTPPVLDSDGSFFLYSKLTVDKSRWQQGNVFSCSVMHEALHNHYTQKSLSLSPGK
notes: Minibody: single chain VH-linker-VL-hinge-CH3, secreted by T cells electroporated with its mRNA; Variable regions are from PD1-17 of U.S. Pat. No. 7,488,802; also called PD1 minbody
- binding result: binds
